Laboratory results as given in US20250205337A1, “COMPOSITIONS AND METHODS FOR ACTIVATING IMMUNE CELLS” (MDX Management LLC, priority 2022, published 2025).
“Also recorded” adds a separate entry of the source.

Legend:
Type in all cases: cell-based, human
κAPC = assay: Proinflammatory phenotype of κAPC (KX2 refinement); settings: in the presence of tumor cells
Source text: Karnelian X1 cytokines, additional cytokines, TLR ligands and other factors for phenotypic optimization of cMo-derived APCs were further tested. These efforts led to the formation of Karnelian X2, which acted to further bolster κAPC for phagocytosis, immunogenic antigen presentation, and T cell priming, and also endowed κAPC with a proinflammatory phenotype and the ability to resist repolarization in the tumor microenvironment. KX2™ comprises cytokines (choices of IFNα, IFNγ and TNFα), TLR ligands (choices of Poly IC, CpG, R848), and TPI-1.

[1] = tested on: monocytes from cancer patients (cMo); assay: cMo survival in vitro (STAT3 activators, inhibitors, M-CSF/GM-CSF, KX1)
Source text: After two days, the T cell culture medium was used to treat cMo.
IL-10/IL-10R signaling activates the downstream STAT3 signaling pathway.
(§1) The mechanisms by which KX1 could promote cMo survival was further studied.

IL-10 = IL-10 production by cMo
Source text: Particularly, high levels of IL-10 and IL-6 were detected in Karnelian X1. Further cytokine depletion assays confirmed the critical role of IL-10, and its depletion largely (60-80%) diminished the capacity of cMo adhesion and survival (FIG. 5B).

[2] = tested on: monocytes from healthy donors (Mo); assay: Response of monocytes from healthy donors (Mo) to M-CSF and GM-CSF
Source text: Similarly, cMo poorly respond to GM-CSF alone or GM-CSF plus IL-4 that drives DC differentiation (data not shown). […] Parallel experiments testing the same M-CSF and GM-CSF reagents successfully differentiated Mo from healthy donors with >90% survival rates.
(§2) Examination of Akt and Erk1/2, as well as other signaling molecules, detected similar total levels in Mo versus cMo (FIG. 2C), ruling out the absence of protein phosphorylation due to reduction of protein translation.

[3] = tested on: Akt, Erk1/2, STAT3, caspase-9 and caspase-3 in cMo; assay: Survival and apoptosis signal transduction in cMo (Western blotting)
Source text: as §2, §1
The role of IL-10 and other key factors in KX1 was further studied. As shown in FIG. 9A-9D, depletion of IL-10 diminished (>70%) KX1-mediated activation of Akt, Erk 1/2, and STAT3, and this global reduction of survival signal was associated with an increase in cell death signal through activation of caspase-9 and caspase-3.
As shown in FIG. 10A-10C, triple cytokine combination (C-combo V1) was capable of achieving >80% cMo differentiation, although each component alone was not sufficient.

[4] = tested on: monocytes from cancer patients (cMo); assay: Cytokine depletion assays of Karnelian X1 (cMo survival/adhesion and differentiation); settings: depletion assays
Method: The differentiation of cMo from >100 cancer patient samples was tested.
The role of IL-10 and other key factors in KX1 was further studied.

With O=C1C=CC(=O)C(c2cc(Cl)ccc2Cl)=C1 [TPI-1] the “proinflammatory phenotype of κAPC” value (κAPC) was “promotes proinflammatory phenotype of κAPC”.

B1: IL-12: IL-12 family cytokine, STAT3 activator (protein, UniProt P29459 23-219; P29460 23-328, looked up)
Interleukin-12 subunit alpha: RNLPVATPDPGMFPCLHHSQNLLRAVSNMLQKARQTLEFYPCTSEEIDHEDITKDKTSTVEACLPLELTKNESCLNSRETSFITNGSCLASRKTSFMMALCLSSIYEDLKMYQVEFKTMNAKLLMDPKRQIFLDQNMLAVIDELMQALNFNSETVPQKSSLEEPDFYKTKIKLCILLHAFRIRAVTIDRVMSYLNAS
Interleukin-12 subunit beta: IWELKKDVYVVELDWYPDAPGEMVVLTCDTPEEDGITWTLDQSSEVLGSGKTLTIQVKEFGDAGQYTCHKGGEVLSHSLLLLHKKEDGIWSTDILKDQKEPKNKTFLRCEAKNYSGRFTCWWLTTISTDLTFSVKSSRGSSDPQGVTCGAATLSAERVRGDNKEYEYSVECQEDSACPAAEESLPIEVMVDAVHKLKYENYTSSFFIRDIIKPDPPKNLQLKPLKNSRQVEVSWEYPDTWSTPHSYFSLTFCVQVQGKSKREKKDRVFTDKTSATVICRKNASISVRAQDRYYSSSWSEWASVPCS
B1 was tested, and the “cMo survival (and differentiation) on supplementation” value ([1]; IL-10-depleted KX1 / in place of IL-10) was “could replace IL-10 to support cMo survival and differentiation”, the “Effectiveness (cMo survival rate)” value ([1]; in vitro, at optimal concentration) was 50-70% and the “Optimal concentration (ng/mL)” value ([1]; promoting cMo survival in vitro) was >10 ng/mL (10-100). The “induction of IL-10 in cMo” value (IL-10) was “induction of IL-10”.

B2: M-CSF: classical macrophage differentiation factor (protein, UniProt P09603 33-554, looked up)
Macrophage colony-stimulating …: EEVSEYCSHMIGSGHLQSLQRLIDSQMETSCQITFEFVDQEQLKDPVCYLKKAFLLVQDIMEDTMRFRDNTPNAIAIVQLQELSLRLKSCFTKDYEEHDKACVRTFYETPLQLLEKVKNVFNETKNLLDKDWNIFSKNCNNSFAECSSQDVVTKPDCNCLYPKAIPSSDPASVSPHQPLAPSMAPVAGLTWEDSEGTEGSSLLPGEQPLHTVDPGSAKQRPPRSTCQSFEPPETPVVKDSTIGGSPQPRPSVGAFNPGMEDILDSAMGTNWVPEEASGEASEIPVPQGTELSPSRPGGGSMQTEPARPSNFLSASSPLPASAKGQQPADVTGTALPRVGPVRPTGQDWNHTPQKTDHPSALLRDPPEPGSPRISSLRPQGLSNPSTLSAQPQLSRSHSSGSVLPLGELEGRRSTRDRRSPAEPEGGPASEGAARPLPRFNSVPLTDTGHERQSEGSFSPQLQESVFHLLVPSVILVLLAVGGLLFYRWRRRSHQEPQRADSPLEQPEGSPLTQDDRQVELPV
B2 was tested, and the “survival signal transduction in Mo (activation of Akt and Erk1/2)” value [2] was “induced strong survival signal transduction in Mo cells”, the “cMo responsiveness to differentiation factor” value ([1]; over twenty cMo samples, various solid tumors) was “non- or poor responsiveness” and the “activation of Akt, Erk1/2, STAT3 in cMo” value [3] was “failed to activate Akt and Erk1/2”. The “caspase-9 and caspase-3 cleavage in cMo” value [3] was “increased caspase-9 and caspase-3 cleavage; also recorded: did induce apoptotic signals via cleavage of caspase-9 and caspase-3” and the “role of the cytokine in Karnelian X1 for cMo survival and differentiation” value [4] was “dispensable”.
